From article PMC10357428

Tested on: CC(=O)Oc1c[nH]c2ccccc12
Experiment: purified protein

## CanB (Mtb β-carbonic anhydrase, Rv3588c) (Mycobacterium tuberculosis H37Rv)
  Km: 4.5 ± 0.6 mM
